Test results as given in FireProtDB (doi:10.1093/protein/7.9.1089).
Where “and” joins values, the source holds several entries; their conditions need not be identical. Equal entries are not always repeated.

Conditions: Bacillus amyloliquefaciens, pH 4.4, Thermal, DSC, Sodium acetate/Acetic acid 6.08 mM/13.92 mM/, reversible: yes (>95%), whole UniProt chain shown

B1: Ribonuclease wild type, P00648 (protein)
chain: MMKMEGIALKKRLSWISVCLLVLVSAAGMLFSTAAKTETSSHKAHTEAQVINTFDGVADYLQTYHKLPDNYITKSEAQALGWVASKGNLADVAPGKSIGGDIFSNREGKLPGKSGRTWREADINYTSGFRNSDRILYSSDWLIYKTTDHYQTFTKIR
heat capacity change of unfolding (25 °C): 1.6 kcal/mol/K
unfolding free energy (25 °C): 8.69 kcal/mol and 8.66 kcal/mol
Tm: 51.5 °C and 51.6 °C
unfolding enthalpy (calorimetric): 128 kcal/mol
unfolding enthalpy (van 't Hoff): 128 kcal/mol and 129 kcal/mol
